Biological target: human IL-17A (human) (UniProt Q16552)
Assay: cell-based or functional assay

Chain of human IL-17A (human) (Q16552 20-155 limits assumed): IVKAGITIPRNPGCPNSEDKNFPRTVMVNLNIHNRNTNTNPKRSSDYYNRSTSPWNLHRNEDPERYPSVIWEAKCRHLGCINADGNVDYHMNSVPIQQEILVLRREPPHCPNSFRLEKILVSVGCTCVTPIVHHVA

## BCD-085 anti-IL-17A monospecific antibody (BIOCAD)
  IC50, IL-17A-dependent IL-6 production, HT1080 cells: 9.2 ng/mL
  IC50, dual IL-17A/TNFα-dependent IL-6 production, HT1080 cells: 0.025 nM

Source: US20210332120A1
